In patent US20250340655A1, “EPHA2-TARGETING ANTIBODIES AND THEIR APPLICATIONS IN CANCER TREATMENT” (TAIPEI MEDICAL UNIVERSITY, priority 2022, published 2025):
Ends that are not written are not given here. BSA = bovine serum albumin carrier conjugated to the peptide

Legend:
[1] = test system: Mia PaCa-2 tumor; test: Mia PaCa-2 tumor xenograft model (IgG hSD5, gemcitabine); assay type: in vivo, mouse; details: Mia PaCa-2 xenograft
Procedure: (§1) The freshly prepared BxPc-3 and Mia PaCa-2 cancer cells were harvested during the log growth phase and resuspended in PBS for tumor implantation. Each NOD/SCID mouse was subcutaneously inoculated with cancer cells (5×10^6 to BxPc-3 and 1×10^7 to Mia PaCa-2) for tumor formation. The tumor size was measured twice weekly, and the volume was calculated as follows: V=0.5lw^2, where l=the length and w=the width. When the tumor size was approximately 100 mm3, animals were divided into groups that received (a) vehicle alone through intravenous injection (i.v.) once weekly (qwk), (b) control human IgG1 at 20 mg/kg through i.v. qwk, (c) and (d) hSD5 IgG1 at 2 or 20 mg/kg through i.v. qwk, (e) and (f) gemcitabine at 20 or 100 mg/kg through i.v. twice weekly (biw), or (g) hSD5 IgG1 at 2 mg/kg through i.v. qwk combined with gemcitabine at 20 mg/kg through i.v. biw. At the end of the experiment, the antitumor effects were quantified by dividing the tumor volumes in the treatment groups by those in the control groups and multiplying them by 100 to represent tumor growth inhibition (TGI; %). The mice were also examined frequently for overt signs of adverse drug-related side effects.
(§2) The pancreatic tissue microarray slide (US Biomax, PA483e) was used to detect and analyze the EphA2 expression of clinical samples. In the xenograft animal model, the excised BxPc-3 and Mia PaCa-2 tumors were fixed in formalin, embedded in paraffin, and sliced for immunohistochemical staining (IHC). Commercial antibodies (Cell signaling, Dako; Agilent Technologies; and Abcam) were used for staining the EphA2 molecule, cell proliferation marker Ki-67, and apoptosis marker cleaved caspase 3. The effects of staining were observed using a Zeiss Axioskop-2 microscope (Carl Zeiss).
(§3) Mia PaCa-2 xenograft mice was also used to determine the inhibitory effect of IgG hSD5 on in vivo tumor growth. Administration of IgG hSD5 (20 mg/kg, iv, qwk, indicated as blue filled inverted triangles) and Gemcitabine (100 mg/kg, iv, biw, indicated as orange filled squares) were used to test the inhibition effect on BxPc-3 tumor growth, n=6, TGI denotes Tumor growth inhibition. (FIG. 8A) Administration of IgG hSD5 (2 mg/kg, iv, qwk, indicated by solid black triangles), Gemcitabine (20 mg/kg, iv, biw, indicated by black open squares), and the experimental group that combined IgG and Gemcitabine treatment simultaneously (indicated by solid red diamonds) were used to teat the growth inhibitory effect of BxPc-3 on the tumor. (FIG. 8B) During treatments, the weight changes of each mouse group were tracked. (FIG. 8C) The expression levels of EphA2, cell proliferation marker Ki67, and apoptosis-related marker cleaved caspase3 in the excised tumor groups were analyzed by IHC staining. (FIG. 8D)

[2] = test system: BxPc-3 tumor; test: BxPc-3 tumor xenograft model (IgG hSD5, gemcitabine); assay type: in vivo, mouse; details: BxPc-3 xenograft, iv
Procedure: as §1, §2
as §3, with “Administration” for “Mia PaCa-2 xenograft mice was also used to determine the inhibitory effect of IgG hSD5 on in vivo tumor growth. Administration”, “7A)” for “8A)”, “7B)” for “8B)”, “7C)” for “8C)”, “7D)” for “8D)”

[3] = biological target: T1, recombinant EphA2 protein (UniProt P29317 24-537, limits assumed); test: biolayer interferometry
T1 construct: Coated on ELISA plates, run on Native-PAGE and used in biolayer interferometry

[4] = biological target: T2, EphA2pep_P1 (BSA-CGGGWDLMQNIMNDMPIYMYSV) (conjugated with BSA (printed BSA-C...)); test: peptide ELISA on BSA-conjugated peptides
T2 peptide: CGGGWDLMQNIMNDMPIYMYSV
Procedure: (§4) These peptides were synthesized and conjugated with BSA (Kelowna International Scientific). The BSA-conjugated peptides were individually coated on a 96-well microplate at 4° C. overnight. […] Next, an HRP-conjugated anti-HA tag antibody (Cell Signaling Technology) was used to detect bound scFv. Finally, the TMB substrate was added for development, and the reaction was stopped by adding 1 N HCl. Absorbance was measured by determining the OD at 450 nm. […] Blocking with 3% BSA was performed at RT for 1 h. […] After the membrane was washed, the HRP-conjugated anti-HA tag antibody was added, and the reaction was allowed to proceed for 1 h at RT. Lastly, DAB was used to initiate the coloration reaction.
(§5) The two short peptides located on the designed activation site of EphA2 are EphA2pep_P1 and EphA2pep_P2, respectively. The long peptide formed by linking the two short peptides is EphA2pep_PIP2. NCIpep and NC2pep are two irrelevant peptides as the negative control. EphA2 ECD is a recombinant EphA2 extracellular domain protein.

[5] = biological target: T3, EphA2pep_P2 (BSA-CGGGGGGSVSSDFEARHV); test: peptide ELISA on BSA-conjugated peptides
T3 peptide: {BSA}-CGGGGGGSVSSDFEARHV
Procedure: as §4, §5

[6] = biological target: T4, EphA2pep_PIP2 (BSA-CGGGWDLMQNIMNDMPIYMYSVGGGGGGSVSSDFEARHV) (conjugated with BSA (printed BSA-C...)); test: peptide ELISA on BSA-conjugated peptides
T4 construct: also called long peptide
T4 peptide: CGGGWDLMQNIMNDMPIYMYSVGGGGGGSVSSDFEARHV
Procedure: as §4, §5

[7] = test system: BxPc-3 cells; test: Antibody internalization (endocytosis) assay; assay type: cell-based, human; details: BxPc-3, 1 h, 37° C. vs 4° C. (FIG. 6B)
Procedure: BxPc-3 cells were seeded on cover glasses placed in the wells of a 6-well culture plate. The BxPc-3 seeded glass slides were incubated with ephrin A1-Fc (Sino Biological) or IgG hSD5 for 1 h at 37° C. or 4° C. After washing with PBS, the cells were fixed with 100% ice methanol for 10 min. Next, the cells were stained with an FITC-conjugated anti-human Fc antibody and were subsequently mounted with ProLong Diamond Antifade Mountant comprising 4′,6-diamidino-2-phenylindole for nuclear counterstaining (Invitrogen). The cells were imaged using a confocal microscope (Leica Microsystems).

[8] = biological target: T1, recombinant EphA2 protein; test: ELISA, serially diluted scFv on coated recombinant EphA2
Procedure: The recombinant EphA2 protein (0.5 ug/well) was coated onto the wells of the microtiter plate at 4° C. overnight. The wells were blocked with 5% skim milk, and scFv or phage was then added to the wells at room temperature for 1 h. After the wells were washed with PBST, the bound scFv or phage was then detected and developed using horseradish peroxidase (HRP)-conjugated goat anti-chicken light chain antibodies (Bethyl Laboratories) or HRP-conjugated anti-M13 antibodies (GE Healthcare Life Science). Finally, the substrate 3,5,5-tetramethubezidine dihydrochloride (TMB) was added for signal development. The reaction was stopped by adding 1 N HCl, and absorbance was measured by determining optical density (OD) at 450 nm.
Four representative scFvs were serially diluted to test the percentage of binding to EphA2 molecules. (FIG. 3C) After gene sequencing, we serially diluted the four isolated representative scFvs to test the binding reaction to EphA2.

T1 sequence (P29317 24-537 limits assumed): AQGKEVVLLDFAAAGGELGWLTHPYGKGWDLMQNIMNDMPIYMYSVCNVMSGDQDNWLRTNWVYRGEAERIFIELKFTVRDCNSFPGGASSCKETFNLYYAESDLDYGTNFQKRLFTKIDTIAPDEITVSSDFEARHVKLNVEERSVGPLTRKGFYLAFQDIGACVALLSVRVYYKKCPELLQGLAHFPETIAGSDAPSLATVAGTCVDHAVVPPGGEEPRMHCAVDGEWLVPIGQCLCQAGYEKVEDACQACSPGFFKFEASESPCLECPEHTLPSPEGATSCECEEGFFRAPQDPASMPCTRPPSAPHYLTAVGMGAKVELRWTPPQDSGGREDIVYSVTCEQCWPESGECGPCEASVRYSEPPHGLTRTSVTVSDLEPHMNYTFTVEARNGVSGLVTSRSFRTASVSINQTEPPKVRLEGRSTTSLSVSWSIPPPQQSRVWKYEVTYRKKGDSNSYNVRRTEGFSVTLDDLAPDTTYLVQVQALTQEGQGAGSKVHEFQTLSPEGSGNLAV

In the case of `Nc1ccn([C@@H]2O[C@H](CO)[C@@H](O)C2(F)F)c(=O)n1` [Gemcitabine, reference compound], the “TGI (tumor growth inhibition)” value ([1]; 20 mg/kg gemcitabine) is reported as 38.7%, the “TGI (tumor growth inhibition)” value ([1]; 100 mg/kg) is reported as 73.7% and the “TGI (tumor growth inhibition)” value ([2]; 20 mg/kg, biw) is reported as 34.6%. The “TGI (tumor growth inhibition)” value ([2]; 100 mg/kg, qwk) was 59.8%.

B1: Humanized IgG hSD5 (antibody, V domains shown)
VH: QVQLVESGGGLVQPGGSLRLSCAASGFTFSDYGMGWVRQAPGKGLEWVAGISAAGSFTPYGAAVKGRFTISRDNSKNTVYLQMNSLRAEDTAVYYCARIPSGYRAGEIYTWGQGTLVTVSS
VL: LTQPPSVSVSPGQTVRITCSGSSGSYGWYQQKSPGQAPVTLIYDNDKRPSGIPERFSGSSSGSTSTLTISGVQAEDEADYYCGSADSSTYVGMFGGGTKLTVL
notes: also called hSD5 IgG; hSD5 IgG1
In the case of B1, the Kd [3] is reported as 2.06 nM, the binding result [4] is reported as “binds” and the binding result [5] is reported as “binds”. B1: binds [6].

B2: ephrin-A1: ligand of EphA2, recombinant, used as a positive control (protein)
chain: DRHTVFWNSSNPKFRNEDYTIHVQLNDYVDIICPHYEDHSVADAAMEQYILYLVEHEEYQLCQPQSKDQVRWQCNRPSAKHGPEKLSEKFQRFTPFTLGKEFKEGHSYYYISKPIHQHEDRCLRLKVTVSGKITHSPQAHDNPQEKRLAADDPEVRVLHSIGHS
modifications: left off: a dimerising Fc or GST
notes: ligand of EphA2, recombinant, used as a positive control
B2 was tested, and the “endocytosis after targeting EphA2” value [7] was “endocytosed from the cell membrane into the cytoplasm”.

B3: scFv SD5 (scFv)
scFv: LTQPSSVSANLGETVKIPCSGSSGSYGWYQQKSPGSAPVTLIYDNDKRPSDIPSRFFGSTSGSTSTLTITGVQAEDEAVYFCGSADSSTYVGMFGAGTTLTVLGQSSRSSTVTLDESGGGLQTPGGGLSLVCKASGFTFSDYGMGWVRQAPGKGLEFVAGISAAGSFTPYGAAVKGRATISRDNGQSTVRLQLNNLRSEDTGIYYCARIPSGYRAGEIYTWGQGTEVIVSS
notes: also called antibody SD5
In the case of B3, the EC50 [8] is reported as 1.8 nM.
